We go through 1 molecule from patent US20170369592A1, “NOVEL ANTI-FIBROBLAST ACTIVATION PROTEIN (FAP) ANTIBODIES AND USES DERIVED THEREOF” (Mabimmune Diagnostics AG, priority 2015, published 2017).

In one data set the target is T1, FAP (Homo sapiens, UniProt Q12884).
T1 sequence (Q12884 1-760): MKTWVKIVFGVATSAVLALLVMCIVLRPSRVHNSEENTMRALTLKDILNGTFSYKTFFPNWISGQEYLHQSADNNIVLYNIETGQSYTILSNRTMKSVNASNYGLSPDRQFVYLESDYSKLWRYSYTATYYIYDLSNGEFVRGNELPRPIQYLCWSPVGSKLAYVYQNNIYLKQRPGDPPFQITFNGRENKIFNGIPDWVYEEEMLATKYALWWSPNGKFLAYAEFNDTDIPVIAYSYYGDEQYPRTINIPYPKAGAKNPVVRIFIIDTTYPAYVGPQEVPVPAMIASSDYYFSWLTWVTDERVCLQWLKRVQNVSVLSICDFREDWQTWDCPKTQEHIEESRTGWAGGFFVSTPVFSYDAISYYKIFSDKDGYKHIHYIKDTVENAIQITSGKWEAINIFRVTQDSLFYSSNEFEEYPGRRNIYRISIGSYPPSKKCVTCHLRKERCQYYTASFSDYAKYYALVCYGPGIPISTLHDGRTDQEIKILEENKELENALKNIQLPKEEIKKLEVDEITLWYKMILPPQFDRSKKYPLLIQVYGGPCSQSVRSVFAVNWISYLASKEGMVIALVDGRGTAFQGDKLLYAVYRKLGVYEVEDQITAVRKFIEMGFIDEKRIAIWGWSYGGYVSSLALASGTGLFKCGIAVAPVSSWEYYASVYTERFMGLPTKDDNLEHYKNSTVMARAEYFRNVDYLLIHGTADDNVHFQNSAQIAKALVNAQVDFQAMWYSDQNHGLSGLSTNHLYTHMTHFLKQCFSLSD
As to the kind of experiment: Binding specificity ELISA versus CD26 and unrelated human antigens. The note with it: detection antibody at 20, 4 and 0.8 nM. The procedure: A mouse anti-6×-histidine tag antibody (Clonetech) was coated at a concentration of 3 μg/ml in PBS to a 96 well ELISA plate, the plates were then blocked with 5% BSA in PBS, and enzymatically active recombinant human FAP with an N-terminus 6× histidine tag was added to the plates to be captured. The binding efficiency of NI-206.82C2 (at 20 nM, 4 nM, and 0.8 nM) against sFAP was then tested by 1 hour incubation, followed by washing with PBS and detection with an HRP-labelled goat anti-human antibody (Jackson Immunoresearch) using a colormetric assay. To assess NI-206.82C2 binding other targets, recombinant human CD26 and fourteen other unrelated recombinant human proteins (A-N) were individually added to a 96-well ELISA plate in triplicate, and the binding efficacy of NI-206.82C2 was evaluated. (FIG. 7A)

A further data set has as its system 4T1 breast tumor. As to the kind of experiment: In-vivo fluorescence imaging in 4T1 breast tumor bearing Balb/c mice. The note with it: fluorescently labeled antibody, tumor mouse model. The protocol:
These antibodies are designated as A680-82C2 (Alexa 680 labelled 82C2) and A680-43A11 (Alexa 680 labelled 43A11).
A murine cancer model was generated by the injection of 100′000 4T1 cultured breast tumor cells orthotopically into the 2nd left breast of Balb/c immunocompetent mice and allowed to grow for 7 days. Prior to in vivo imaging, the animals were shaved and de-epilated to remove fur for minimal absorbance and scattering of the incident optical light. In-vivo imaging was performed with the Maestro 500 imaging system (Cambridge Research Inc, Woburn, USA). For A680-82C2 detection, a band pass filter from 615 nm-665 nm and a highpass filter over 700 nm were used for excitation and emission light respectively, and fluorescence was detected by a CCD camera (cooled to 11° C.). A series of images were acquired at different wavelengths and then subjected to spectral unmixing (deconvolution of collected optical spectra; this enabled the unmixing of the Alexa680 fluorescence pattern from tissue auto-fluorescence and other spectral contributions).
The 4T1-breast tumor bearing Balb/c mice (3-4 in each group) were then injected on day 7 after innoculation with 2 mg/kg of A680-82C2 or A680-43A11. Whole mice images were acquired at the following timepoints: before antibody injection, immediately after antibody injection, 6h, 24h, 48h, and 6d after antibody injection.

For another data set, the target named is T2, transmembrane human FAP (Homo sapiens, UniProt Q12884).
T2 construct: retrovirus encoding full length human FAP cDNA; host or cells: HEK293 (FAP-HEK293, G418 selected)
T2 sequence (Q12884 1-760): T1 sequence (Q12884 1-760)
As to the kind of experiment: Flow cytometry on FAP-HEK293 cells at pH 7.4, 6.8, 6.4. The format is cell-based. The note with it: pH 6.4 and 6.8 vs pH 7.4, FAP-HEK293 cells, Cy5 labelled. The protocol: To evaluate the binding of NI-206.82C2 to transmembrane human FAP, an FAP expressing HEK293 cell line was received from the National Institutes of Health, Bethesda, Md. The generation of this FAP expressing HEK293 cells is described in: J. Exp. Med. 2013 Vol. 210 No. 6 1125-1135.
HEK293 cells were transduced with retrovirus encoding full length human FAP cDNA. Cloning was performed using Fast Cloning Pack and FastDigest restriction enzymes (both from Fermentas). Transient retroviral supernatants were generated by transfecting 293GP cells with the FAP plasmid using Lipofectamine 2000 (Invitrogen). Retroviral supernatants were collected at 48 h after transfection and centrifuged onto Retronectin-coated (10 μg/ml; Takara), non-tissue culture-treated 6-well plates at 2,000 G for 2 h at 32° C. These retroviral supernatants where then used to transduce HEK293 cells overnight. Transduced FAP-HEK293 cells were selected with 1 mg/ml G418 (CellGro). […]
To analyze antibody binding, fluorescent activated flow cytometry was performed using a BD Fortesa device for forward scatter, side scatter, and the mean fluorescent intensity (MFI) of the Cy5 channel was recorded using a […] laser excitation and 600/20 filter. Viable cells were gated by forward and side scatter, and singlets/doublet exclusion, and the MFI for Cy5 was quantified using FlowJo software Version 10.1.

B1: NI-206.82C2: recombinant human memory B cell-derived monoclonal anti-FAP IgG1 antibody, variable regions in FIG. 1A, FAP inhibitory (antibody, V domains shown)
VH: QVQLQQSGPGLVKPSQTLSLTCAISGDSVSSNSVTWNWIRQSPSRGLEWLGRTYYRSKWYNDYAVSVKGRITINPDTSKNQFYLQLKSVTPEDAAVYYCARDSSILYGDYWGQGTLVTVSS
VL: QAVLTQPSSLSASPGASASLTCTLPSGINVGTYRIFWFQQKPGSPPQYLLSYKSDSDNHQGSGVPSRFSGSKDASANAGILLISGLQSEDEADYYCMIWHSSAWVFGGGTKLTVL
In the case of B1, the “colorimetric signal against recombinant human FAP versus CD26 and unrelated human antigens” value with FAP is recorded as “significantly greater”. For the same molecule, the “antibody concentration after 6 d post antibody injection” value with 4T1 breast tumor is on record as “almost zero”. The “binding to transmembrane FAP, pH dependence (Δ MFI)” value with transmembrane human FAP is “higher affinity at lower pHs”.
